The source of these data is patent publication US20230183352A1 (published 2023).

B1: QP14431442 (antibody, V domains shown)
VH: QVQLVQSGAEVKKPGASVKVSCKASGYAFSSYWMNWVRQAPGQGLEWMGQIYPGNGDTTYNGKFKGRVTMTRDTSTSTVYMELSSLRSEDTAVYYCARFVKGNAMDYWGQGTLVTVSS
VL: DIVMTQSPDSLAVSLGERATISCKSSQSLLNSGNQKNYLTWYQQKPGQPPKMLIYWASTRESGVPDRFSGSGSGIDFTLTISSVQAEDVAVYYCQNAYSYPFTFGQGTKLEIK
B2: QP14561453 (antibody, V domains shown)
VH: QVQLVQSGAEVKKPGASVKVSCKASGYTFTNYFVHWVRQAPGQGLEWMGYINPYNDDTKYNEKFKGRVTMTRDTSTSTVYMELSSLRSEDTAVYYCLSLRFFAYWGQGTLVTVSS
VL: B1 VL with P49A, M52L, I75T, V84L, A97D, F102L, Q106G, L110V
B3: QP14581452 (antibody, V domains shown)
VH: B2 VH with R38K, M48I, R67K, V68A, M70L
VL: B1 VL with S22N, M52L, I75T, V84L, A97D, F102L, Q106G, L110V
B4: QP14431441 (antibody, V domains shown)
VH: B1 VH
VL: B1 VL with M52L
B5: QP14571455 (antibody, V domains shown)
VH: B2 VH with M48I, M70L
VL: B1 VL with P49A, M52L, S69I, I75T, Y93F, A97D, F102L, Q106G, L110V
B6: QP14571454 (antibody, V domains shown)
VH: B2 VH with M48I, M70L
VL: B1 VL with P49A, M52L, I75T, Y93F, A97D, F102L, Q106G, L110V
B7: QP14571453 (antibody, V domains shown)
VH: B2 VH with M48I, M70L
VL: B1 VL with P49A, M52L, I75T, V84L, A97D, F102L, Q106G, L110V
B8: QP14441439 (antibody, V domains shown)
VH: B1 VH with M48I, R72A, T74K
VL: B1 VL with S22N, M52L, I75T, V84L
B9: QP14571452 (antibody, V domains shown)
VH: B2 VH with M48I, M70L
VL: B1 VL with S22N, M52L, I75T, V84L, A97D, F102L, Q106G, L110V
B10: QP14561452 (antibody, V domains shown)
VH: B2 VH
VL: B1 VL with S22N, M52L, I75T, V84L, A97D, F102L, Q106G, L110V
B11: QP14561455 (antibody, V domains shown)
VH: B2 VH
VL: B1 VL with P49A, M52L, S69I, I75T, Y93F, A97D, F102L, Q106G, L110V
B12: QP14441440 (antibody, V domains shown)
VH: B1 VH with M48I, R72A, T74K
VL: B1 VL with M52L, I75T, V84L
B13: QP14451441 (antibody, V domains shown)
VH: B1 VH with M48I, R72A, T74K, Y95F
VL: B1 VL with M52L
B14: QP14441442 (antibody, V domains shown)
VH: B1 VH with M48I, R72A, T74K
VL: B1 VL
B15: QP201202 (antibody, V domains shown)
VH: EVQLQQSGPELVKPGASVKMSCKASGYTFTNYFVHWVKQKPGQGLEWIGYINPYNDDTKYNEKFKGKATLTSDKSSSTAYMDLSSLTSEDSAVYYCLSLRFFAYWGQGTLVTVSA
VL: DIVMTQSPSSLTVTAGEKVTMSCKSSQSLLNSGNQKNYLTWYQQKPGQAPKLLIYWASTRESGVPDRFIGSGSGTDFTLTISHVQAEDLAVYFCQNDYSYPLTFGAGTNLELK
B16: QP14581453 (antibody, V domains shown)
VH: B2 VH with R38K, M48I, R67K, V68A, M70L
VL: DIVMTQSPDSLAVSLGERATISCKSSQSLLNSGNQKNYLTWYQQKPGQAPKLLIYWASTRESGVPDRFSGSGSGTDFTLTISSLQAEDVAVYYCQNDYSYPLTFGGGTKVEIKR
B17: QP14581454 (antibody, V domains shown)
VH: B2 VH with R38K, M48I, R67K, V68A, M70L
VL: B16 VL with L84V, Y93F
B18: QP14561454 (antibody, V domains shown)
VH: B2 VH
VL: B16 VL with L84V, Y93F
B19: QP14651462 (antibody, V domains shown)
VH: EVQLVQSGAEVKKPGASVKVSCKASGYTFTSYIMHWVRQAPGQGLEWIGYINPYNDGTKYNEKFKGRVTLTSDKSTSTVYMELSSLRSEDTAVYYCARLGFTTRNAMDYWGQGTLVTVSS
VL: B1 VL with S22N, T40A, M52L, W56G, S69T, I75T, A97D, Y98H
B20: QP14491446 (antibody, V domains shown)
VH: EVQLVESGGGLVQPGGSLRLSCAASGFTFSSFGMHWVRQAPGKGLEWVSYISSGSNSIYYVDTVKGRFTISRDNAKNSLYLQMNSLRDEDTAVYYCARNAYYGNSFDYWGQGTLVTVSS
VL: B1 VL with S22N, M52L, I75T, V84L, A97N, S99Y, F102L, Q106G, L110V
B21: QP199200 (antibody, V domains shown)
VH: DVQLVESGGGLVQPGGSRKLSCAASGFTFSSFGMHWVRQAPEKGLEWVAYISSGSNSIYYVDTVKGRFTISRDNPKNTLFLQMTSLKSEDTAMYYCARNAYYGNSFDYWGQGTTLTVSS
VL: B15 VL with A49P, I69T, D76V, H83S, D97N, S99Y, N109K

Changes are numbered by the printed parent chain.

One experiment concerns the target T1, Claudin 18.2 (CLDN18.2), expressed on CHOS-CLDN 18.2 / HEK293-CLDN 18.2 / HCC827-CLDN 18.2 cells (human, UniProt P56856 1-261). In words: cell ELISA. For orientation: An ELISA detects its analyte on a solid surface through an enzyme-linked reagent.
By EC50 is commonly meant the concentration needed to bring the measured effect to its halfway point. Take B1: the EC50 came out at 0.132 µg/mL.
B2 came in with a 50% effective concentration (EC50) of 0.357 µg/mL.
For B3, the EC50 amounted to 0.279 µg/mL.
The same measure, in the same setting: next, B4: 0.159 µg/mL; B5: 0.265 µg/mL.
In turn, B6 gave an EC50 of 0.357 µg/mL. The EC50 values of the last two molecules are within 1.5-fold of each other.
With B7, the EC50 is 0.796 µg/mL.
The molecule B8 came in with an EC50 of 0.109 µg/mL.
For B9, the EC50 came out at 0.242 µg/mL.
B10 gave a 50% effective concentration (EC50) of 0.389 µg/mL.
B11 came in with an EC50 of 0.246 µg/mL.
Same read-out and setting: next, B12: 0.086 µg/mL; B13: 0.134 µg/mL; B14: 0.243 µg/mL.
B15 displayed an EC50 of 0.944 µg/mL.
The same measure, in the same setting: next, B16: 0.187 µg/mL.
In turn, B17 displayed an EC50 of 0.21 µg/mL. The EC50 values of the last two molecules are within 1.5-fold of each other.
B18: the EC50 amounted to 0.213 µg/mL. This EC50 and that of the molecule before are within 1.5-fold of each other.

The target in another experiment is T1, Claudin 18.2 (CLDN18.2), expressed on …. In words: cell ELISA. This is another data set of the same source.
In turn, B19 yielded an EC50 of 0.119 µg/mL.
With B20, the EC50 came to 0.158 µg/mL. This EC50 and that of the molecule before are within 1.5-fold of each other.
Consider B21, for which the EC50 was determined as 0.243 µg/mL.
